Measured values taken from the supplement of paper PMC9112550, “Optimization of the antimicrobial peptide Bac7 by deep mutational scanning” (BMC Biology, 2022).

What follows are sequences tested on Escherichia coli TOP10 (assay: shrunken log2 fold change of peptide-encoding DNA abundance (4.5 h post-induction vs induction); higher = less antimicrobial activity (less host growth inhibition)). Conditions: time post-induction: 4.5 h; library: site-saturation at positions 5, 18, 19, 20.
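Note: peptides expressed intracellularly from a pBAD plasmid library in pooled LB shake-flask culture, induced with 0.3% L-arabinose, DNA abundance read by NGS, three biological replicates, DESeq2 with apeglm shrinkage.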

Sequence	shrunken log2 fold change
RRIRSRPPRLPRPRPRPGIPPRP	-0.00461
RRIRERPPRLPRPRPRPFLTPRP	-0.506
RRIRNRPPRLPRPRPRPLQKPRP	-0.0108
RRIRTRPPRLPRPRPRPCNLPRP	-0.00247
RRIRERPPRLPRPRPRPKPRPRP	0.467
RRIRCRPPRLPRPRPRPAKKPRP	0.00097
RRIRCRPPRLPRPRPRPKDWPRP	0.378
RRIRERPPRLPRPRPRPQTGPRP	-0.0945
RRIRERPPRLPRPRPRPFRIPRP	-0.367
RRIRDRPPRLPRPRPRPHSTPRP	-0.0545
RRIRCRPPRLPRPRPRPTPNPRP	0.786
RRIRDRPPRLPRPRPRPISKPRP	0.002
RRIRNRPPRLPRPRPRPHPDPRP	-0.15
RRIRNRPPRLPRPRPRPRYIPRP	-0.455
RRIRYRPPRLPRPRPRPNDYPRP	-0.0969
RRIRMRPPRLPRPRPRPRQIPRP	1.19
RRIRVRPPRLPRPRPRPDEVPRP	0.0201
RRIRMRPPRLPRPRPRPCVTPRP	0.0301
RRIRPRPPRLPRPRPRPAWRPRP	0.645
RRIRRRPPRLPRPRPRPRLVPRP	0.527
RRIRKRPPRLPRPRPRPQPVPRP	0.095
RRIRIRPPRLPRPRPRPATLPRP	-0.559
RRIRYRPPRLPRPRPRPRVHPRP	-0.0416
RRIRIRPPRLPRPRPRPLMFPRP	-0.617
RRIRARPPRLPRPRPRPHNRPRP	-0.00621

Sequence	shrunken log2 fold change
RRIRVRPPRLPRPRPRPSAYPRP	-0.34
RRIRRRPPRLPRPRPRPQPYPRP	-0.142
RRIRMRPPRLPRPRPRPSWKPRP	-0.181
RRIRRRPPRLPRPRPRPRRYPRP	0.0835
RRIRSRPPRLPRPRPRPQGEPRP	-0.0953
RRIRCRPPRLPRPRPRPAKLPRP	0.0355
RRIRLRPPRLPRPRPRPRVCPRP	0.0558
RRIRIRPPRLPRPRPRPTRHPRP	0.0172
RRIRARPPRLPRPRPRPVNGPRP	-0.133
RRIRCRPPRLPRPRPRPKQAPRP	-0.0334
RRIRPRPPRLPRPRPRPSFVPRP	-0.436
RRIRERPPRLPRPRPRPCIEPRP	-0.155
RRIRSRPPRLPRPRPRPLIGPRP	-0.118
RRIRRRPPRLPRPRPRPWHQPRP	-0.111
RRIRKRPPRLPRPRPRPKYMPRP	-0.0337
RRIRERPPRLPRPRPRPTKEPRP	-0.465
RRIRRRPPRLPRPRPRPNMMPRP	-0.245
RRIRVRPPRLPRPRPRPDSVPRP	-0.28
RRIRNRPPRLPRPRPRPRTKPRP	0.123
RRIRPRPPRLPRPRPRPGYEPRP	-0.172
RRIRRRPPRLPRPRPRPSNGPRP	-0.296
RRIRARPPRLPRPRPRPPHRPRP	0.931
RRIRIRPPRLPRPRPRPRFVPRP	-0.104
RRIRQRPPRLPRPRPRPVTQPRP	-0.378
RRIRGRPPRLPRPRPRPHTLPRP	-0.22

Sequence	shrunken log2 fold change
RRIRDRPPRLPRPRPRPWVDPRP	-0.0979
RRIRVRPPRLPRPRPRPCCSPRP	-0.192
RRIRWRPPRLPRPRPRPHYMPRP	-0.825
RRIRGRPPRLPRPRPRPMFHPRP	0.074
RRIRGRPPRLPRPRPRPFVKPRP	-0.419
RRIRYRPPRLPRPRPRPNSHPRP	-0.839
RRIRIRPPRLPRPRPRPKKIPRP	-0.526
RRIRIRPPRLPRPRPRPEYNPRP	0.0781
RRIRERPPRLPRPRPRPQRTPRP	-0.233
RRIRDRPPRLPRPRPRPLEPPRP	0.239
RRIRPRPPRLPRPRPRPKACPRP	0.255
RRIRNRPPRLPRPRPRPIPSPRP	0.0499
RRIRARPPRLPRPRPRPWNSPRP	-0.222
RRIRCRPPRLPRPRPRPMYNPRP	-0.535
RRIRCRPPRLPRPRPRPISQPRP	-0.544
RRIRERPPRLPRPRPRPMVVPRP	-0.261
RRIRGRPPRLPRPRPRPFCPPRP	-0.0253
RRIRQRPPRLPRPRPRPCPRPRP	-0.01
RRIRFRPPRLPRPRPRPGESPRP	-0.00672
RRIRARPPRLPRPRPRPANSPRP	0.329
RRIRSRPPRLPRPRPRPATPPRP	0.373
RRIRVRPPRLPRPRPRPLKRPRP	0.0621
RRIRIRPPRLPRPRPRPCSKPRP	-0.267
RRIRVRPPRLPRPRPRPVWIPRP	-0.206
RRIRKRPPRLPRPRPRPEFTPRP	0.738

Sequence	shrunken log2 fold change
RRIRVRPPRLPRPRPRPSWWPRP	0.0465
RRIRKRPPRLPRPRPRPLCRPRP	0.392
RRIRHRPPRLPRPRPRPTMGPRP	0.144
RRIRFRPPRLPRPRPRPQGCPRP	-0.13
RRIRARPPRLPRPRPRPQSPPRP	-0.0671
RRIRFRPPRLPRPRPRPWSWPRP	-0.169
RRIRYRPPRLPRPRPRPNLKPRP	-0.732
RRIRYRPPRLPRPRPRPGPTPRP	-0.0479
RRIRQRPPRLPRPRPRPPIFPRP	0.163
RRIRDRPPRLPRPRPRPDLMPRP	0.043
RRIRARPPRLPRPRPRPDVPPRP	-0.0329
RRIRTRPPRLPRPRPRPACIPRP	0.599
RRIRYRPPRLPRPRPRPGLIPRP	-0.0546
RRIRHRPPRLPRPRPRPQHDPRP	-0.281
RRIRARPPRLPRPRPRPKCEPRP	0.367
RRIRPRPPRLPRPRPRPEPGPRP	0.27
RRIRWRPPRLPRPRPRPSRFPRP	-0.0148
RRIRFRPPRLPRPRPRPNKVPRP	-0.92
RRIRVRPPRLPRPRPRPHLPPRP	-0.0222
RRIRERPPRLPRPRPRPNQIPRP	-0.293
RRIRYRPPRLPRPRPRPHQAPRP	-0.0296
RRIRPRPPRLPRPRPRPRKPPRP	-0.0217
RRIRWRPPRLPRPRPRPHSTPRP	-0.209
RRIRDRPPRLPRPRPRPNCKPRP	0.135
RRIRQRPPRLPRPRPRPFRKPRP	-0.101

Sequence	shrunken log2 fold change
RRIRKRPPRLPRPRPRPTFWPRP	0.36
RRIRWRPPRLPRPRPRPFAEPRP	0.801
RRIRCRPPRLPRPRPRPQTQPRP	0.308
RRIRDRPPRLPRPRPRPAQQPRP	-0.0267
RRIRCRPPRLPRPRPRPMPSPRP	2.8
RRIRKRPPRLPRPRPRPLMKPRP	0.0125
RRIRARPPRLPRPRPRPAKEPRP	0.521
RRIRIRPPRLPRPRPRPGLFPRP	-0.0275
RRIRDRPPRLPRPRPRPDYNPRP	-0.204
RRIRCRPPRLPRPRPRPTRVPRP	0.547
RRIRQRPPRLPRPRPRPIGHPRP	-0.281
RRIRRRPPRLPRPRPRPFHEPRP	-0.195
RRIRNRPPRLPRPRPRPTEIPRP	-0.319
RRIRVRPPRLPRPRPRPHICPRP	-0.18
RRIRFRPPRLPRPRPRPGPKPRP	0.066
RRIRWRPPRLPRPRPRPMMLPRP	0.309
RRIRVRPPRLPRPRPRPWSCPRP	-0.155
RRIRKRPPRLPRPRPRPEKFPRP	-0.0568
RRIRIRPPRLPRPRPRPTWEPRP	-0.212
RRIRARPPRLPRPRPRPYWWPRP	-0.195
RRIRRRPPRLPRPRPRPKRQPRP	0.584
RRIRGRPPRLPRPRPRPGQNPRP	0.0139
RRIRLRPPRLPRPRPRPINQPRP	-0.321
RRIRWRPPRLPRPRPRPPKFPRP	0.419
RRIRFRPPRLPRPRPRPRQTPRP	-0.0912

Sequence	shrunken log2 fold change
RRIRNRPPRLPRPRPRPCCYPRP	-0.0141
RRIRQRPPRLPRPRPRPFWYPRP	-0.171
RRIRHRPPRLPRPRPRPCTTPRP	-1.7
RRIRYRPPRLPRPRPRPQEYPRP	-0.00804
RRIRDRPPRLPRPRPRPLPNPRP	-0.234
RRIRMRPPRLPRPRPRPNMHPRP	-0.0148
RRIRFRPPRLPRPRPRPLCYPRP	-0.557
RRIRWRPPRLPRPRPRPIATPRP	0.435
RRIRIRPPRLPRPRPRPKLSPRP	0.144
RRIRARPPRLPRPRPRPYIIPRP	-0.445
RRIRRRPPRLPRPRPRPVGIPRP	0.12
RRIRCRPPRLPRPRPRPKLYPRP	-0.38
RRIRFRPPRLPRPRPRPLFRPRP	-0.372
RRIRRRPPRLPRPRPRPRSRPRP	0.345
RRIRQRPPRLPRPRPRPQSVPRP	0.0191
RRIRPRPPRLPRPRPRPINPPRP	-0.714
RRIRQRPPRLPRPRPRPVSMPRP	-0.181
RRIRMRPPRLPRPRPRPAYAPRP	0.0769
RRIRYRPPRLPRPRPRPTLQPRP	0.201
RRIRLRPPRLPRPRPRPNHAPRP	-0.0276
RRIRERPPRLPRPRPRPLTGPRP	-0.0199
RRIRWRPPRLPRPRPRPEGMPRP	0.999
RRIRQRPPRLPRPRPRPGVFPRP	0.0582
RRIRGRPPRLPRPRPRPSHDPRP	0.136
RRIRIRPPRLPRPRPRPCPQPRP	-0.458
